Assay: soluble on expression in E. coli; label from the status in PepcDB or PDB records

| Sequence | soluble on expression in E. coli |
| --- | --- |
| MFRAGEASKRPLPGPSPPRVRSVEVARGRAGYGFTLSGQAPCVLSCVMRGSPADFVGLRAGDQILAVNEINVKKASHEDVVKLIGKCSGVLHMVIAEGVGRFESCSSDEEGGLYEGKGWLKPKLDSKALGINRAERVVEEMQSGGIFNMIFENPSLCASNSEPLKLKQRSLSESAATRFDVGHESINNPNPNMLSKEEISKVIHDDSVFSIGLESHDDFALDASILNVAMIVGYLGSIELPSTSSNLESDSLQAIRGCMRRLRAEQKIHSLVTMKIMHDCVQLSTDKAGVVAEYPAEKLAFSAVCPDDRRFFGLVTMQTNDDGSLAQEEEGALRTSCHVFMVDPDLFNHKIHQGIARRFGFECTADPDTNGCLEFPASSLPVLQFISVLYRDMGELIEGMRARAFLDGDADAHQNNSTSSNSDSGIGNFHQEEKSNRVLVVDLGGSSSRHGPGGSAWDGVGGRGAQPWGAPWTGPFCPDPEGSPPFEAAHQTDRFWDLNKHLGPASPVEVPPASLRSSVPPSKRGTVGAGCGFNQRWLPVHVLREWQCGHTSDQDSYTDSTDGWSSINCGTLPPPMSKIPADRYRVEGSFAQPPLNAPKREWSRKAFGMQSIFGPHRNVRKTKEDKKGSKFGRGTGLTQPSQRTSARRSFGRSKRFSITRSLDDLESATVSDGELTGADLKDCVSNNSLSSNASLPSVQSCRRLRERRVASWAVSFERLLQDPVGVRYFSDFLRKEFSEENILFWQACEYFNHVPAHDKKELSYRAREIFSKFLCSKATTPVNIDSQAQLADDVLRAPHPDMFKEQQLQIFNLMKFDSYTRFLKSPLYQECILAEVEGRALPDSQQVPSSPASKHSLGSDHSSVSTPKKLSGKSKSGRSLNEELGDEDSEKKRKGAFFSWSRTRSTGRSQKKREHGDHADDALHANGGLCRRESQGSVSSAGSLDLSEACRTLAPEKDKATKHCCIHLPDGTSCVVAVKAGFSIKDILSGLCERHGINGAAADLFLVGGDKPLVLHQDSSILESRDLRLEKRTLFRLDLVPINRSVGLKAKPTKPVTEVLRPVVARYGLDLSGLLVRLSGEKEPLDLGAPISSLDGQRVVLEEKDPSRGKASADKQKGVPVKQNTAVNSSSRNHSATGEERTLGKSNSIKIKGENGKNARDPRLSKREESIAKIGKKKYQKINLDEAEEFFELISKAQSNRADDQRGLLRKEDLVLPEFLRLPPGSTELTLPTPAAVAKGFSKRSATGNGRESASQPGEQWEPVQESSDSPSTSPGSASSPPGPPGTTPPGQKSPSGPFCTPQSPVSLAQEGTAQIWKRQSQEVEAGGIQTVEDEHVAELTLMGEGDISSPNSTLLPPPSTPQEVPGPSRPGTSRF | soluble |
| VNKLSPRFEINEGTYSSFAVAQEGAAPGAGEVRTHRIAVGLYSLIDGSVTRTHRVELDVDSELTEVPELVGVPAADLVIVNDDDLTYCLMQLDPASLAFVVENIDKIADPMARTLCWSAAWEMTRDGSMRARDFVRLIARGAQAETEIAVLERVLMQASRALSSYVDPQWAEQEGSALLADAMLQAARELEPGSDAQLAFVQALAKVKLTDEAAAEFALIAKGSTSLPGVVVDSDLRWWALTALIARGDVPAAEVEQRIAQLLALDKSSAGELAALRAYAAQPSQDVKAKIFAQITDPANSLSNLYLRHKLEGLQFAGSAPYLEQFSESVFELVEPLWKALSSEVAAVTVTGIYPSWDVSAESVERAHAFLDAHPDLPGAARRIISEGAAGQERAVRLRAIDAA | not soluble |
| SISTHESQKLREYYRLLNLDEGCSVDDVRESFHKLARQYHPDSGSSDADSATFIKIEEAYRNVLSHAIKRMHAGQDKAEDAAEDEEEGKFKYNTPQHRHYLSFEGVGFGTPSQREKQYRQFRADRATEQVMEYQRQKLQREFFANSITVKDVRQSKQQKITQAIERLVEDLIQESMAKGDFDNLSGKGKPLKKFSGCSYIDPMTHNLNRILIDNGYQPEWILMQKEIKDTIEQLREALLMSRKKLGNPLSPTEQKQWAQVCEQFQEKIRKLNKRINDFNLIVPILTRQKVHFDAQKEIIRVQEMYGAFVEANEVTEENQTDVSQGEESKTPRVKAGFLNWLNLWKSIKI | soluble |
| MGHHHHHHSHMRFFHWFSKWRKLHRDQEYEVTWYISWSPCTKCTRDMATFLAEDPKVTLTIFVARLYYFWDPDYQEALRSLCQKRDGPRATMKIMNYDEFQHCWSKFVYSQRELFEPWNNLPKYYILLHIMLGEILR | not soluble |
| MHAEKDLITKETTQPVPPPAAVVTHQPITKRYDPPISISPPPQRNNYSHVKVTVDSDTSPRQQAFIDDIVAKGGKLAVVTYDRGGQNTKELTVHKGEYLEVIFDERNWWECKNMHQRVGYVPHTILSMVPFEQQQYASPNHHNNSSSTGGYNNGHHQGPGMLPEDAPSYVKERQGKRGEFRYF | not soluble |
| MSLIAVLRINHRPFRDKRITTHVALTARAFGASSILVDEKDETLEQTINKVVENFGGNFFIKSGVDWKREFRNFKGIRVHLTMYGRPLEDVVKEIRESKKDVMILVGSEKVPFEAYEIADYNVSVTNQPISEVSALAIFLDRFYDGEELNWRFTGKINVYPSERGKKVKIIPDEQGCLDLLYKYGASDYLINHVKSVKELAVAIAKKTNADINLVTAGALLHDIGRTQVQGITHAVVGADILRREGIDDRVVSIVEKHIGAGIQSEEAVKLGLPPDNYVPETIEEMIVAHADNLFAGDKRLKLQQVVDNYRKKGLEDAAERIAKLHKFLSTVIGQDMDEIEGHHHHHH | soluble |
| AIAAQDENKEQPKKDWKTIISPQYWKNSVSLLFTDAEQGNFVLPSLQSVSFSKASETIGKQVKESAKELGALFSAEECPSQQGSKEAPWEVLTAREKPFAKEIEERILKITSDCYRSRKEREEIFLSLSSLKDSHFRWSNNSSEKMKQAMAALEKDPILPDLRAGLVPKRMSEENFWRQYFYLVEKVKKSVVTNSQFGLFDEWESWSDTTSHPTLEHSQENSDLDNEVDQVLNDVLE | soluble |
| MAHHHHHHMKEARKGPCVPWQQNYARWQHTTPVNHVTVMIALDTMNKDRGAPCLVPGSHRWREGGLLPSVPYDPAKDEAQQLNTIWEITNEEESEMLMDTPPATVDMKRGEALLIHPLTLFATHGNRSLDAVRCCFIHYMGGKTYATQNGPLLPHTTQFQAGAMIQGPFYPVVFDPAMTEELAMLPGESAAQNDITEEV | not soluble |
| MTLSIIVAHDKQRVIGYQNQLPWHLPNDLKHIKQLTTGNTLVMARKTFESIGKPLPNRRNVVLTNQASFHHEGVDVINSLDEIKELSGHVFIFGGQTLYEAMIDQVDDMYITVIDGKFQGDTFFPPYTFEDWEVESSVEGQLDEKNTIPHTFLHLVRRKGK | soluble |
| MAGDPMKSSQYPAQDLKRRVLAWAVKLKVNPRAVRVQDMHRKWGSCSSTGTITLASDLLDQEQRFQDYVIVHELLHLRFATHGRMFKALMSAYVPGWRAMEGMGQHRICRKYRSTRSTVLEHHHHHH | not soluble |
| MIWLVLVLSLFLFSCEKLNEIFLEEDLLQRPPSKRCSDCHAKIYEDWEKSRHAKAWVSEHFKEESENYSKLKCLSCHAPHQVDPLKKPVLRVERRHEGVNCIACHFKEETKAMHGPYKVFSPPHPSREDKNYTKSEICAGCHQKTYREWKIARVKTTCQQCHMKVVDYAWIMDKFPFFLFHSRKALHDHTFPAGKATPKDIKLILTEGALNIINVGIPHNLPTADQGNPKLYLIIEFYYKDGKKKVLRRVLSPQAKTALAYLIPYTVKIPRYEKLEKVRVSIYRRLAWEKKRELILSEELKKPF | not soluble |
| MSVEEEKGLLARADEFLQAFKKGAEFTQELLRENERLRFRTLQLEADQKGEGVAAALAVENRKLAARVEELEREIAEIIGQIRQIEAENNDFAARYVEIEEENNNLANLYIASYQLHSTLDFSEVLQIITEIIINLIGAEEFAVMLVDEKTGSLDAVAAEGISLEELPRVRLGEGVIGIAAGTGENYFAEGPETYERDLLRPMVCIPLKIKEHVIGVIAIYKLLIQKKSFASVDYELFTLLAGHAATAIFSSRIYSDSERKLSTMQGFINLLTT | not soluble |
| MGSDKIHHHHHHMISRTMQQQVNSSSIIRAMFEEGKRLSALYGADNVYDFSLGNPNVEPPAEVKQAIMDILNEENSTTVHGYMNNSGFEDVRGAIAASLNQRFATGFAADNILMTVGAAGGLNVIFKTLLNPEDEVLTFAPFFGEYRNYVQNYQGQLIVVSPNTKDFQPNLEELKEKISPRTKAVLINSPNNPTGVVYSAETIAALVDILRAKQEEYGTVIYLIGDEPYRELAYDQVEVPYLTKYYENTIVGYSYSKSLSLPGERIGYLVIPREAADYENLIAAANIANRILGFVNAPSLFQRVIAKCLDAQVNLDSYNRNRELLYNALVSYGYQCIKPEGAFYLFIKTPLENDLEFCTLAKSKNILIVPGTSFACPGYARIAYCVAYETIERALPGFEALINEVSWASA | not soluble |
| MSLSKPLYVFDLDDTLIDGDCAMIWNAFLAEKGIATERNFVEEDRRRMALYAQGKMDMAEYIAFAMQPLAQVPSTTVQDWVEECVSRWIVPKQFAQARELIAQLKQQGNTCLIISASVSFLVKTVAQRFGIEHALGIDLVSQNGCYSGNIEGVASYREGKVLRLQQWLAEQNETYHDVHFYTDSINDLPLCQHADFAYVVNPCPRLKAQAEQHGWPILSWAVEGHHHHHH | soluble |
| MENAFKNKALYHQLVDLLQERIETCMIPHDKLPSERELTAQYGVSRTTVRLALQELENRGSIYRRHGKGTFVSDIKKEAADLAGAYSFTEQMKGLGRKPHTRILSFEKLEADKFICQHLNLSLGEAVFKLSRLRIADNEPLMVEDTYLPVKFFLSLTDQLLRSKPLYDLFSEDFKQTVRLADEELYASIASKEDAKLLMIPEGAPVLHLARQTYNMKNEIIEFTLSVARADQFHYQIRHIRNS | not soluble |
| MGKLVEGVWHDVWYDTKANGGKFVREDAGFRDWIKNDSEAVFQPESGRYHLYVSLACPWAHRTLIFRKLKGLEPHIDVTVVCPDMLSQGWQMGLPEPLFGHTRMHQIYTQAKPDYTGRVTVPVLWDKKTNTIVSNESSEIIRMFNSAFNDLTGNHDDYYPEPLRGVIDEWNDYIYPNVNNGVYRCGFATSQEAYEEAFESLFSALDKIDAHLATHRYLAGNKITEADWRLFTTLVRFDAVYVGHFKCNKQRIADYVNIQGYLKELYQIDGIADTTDFYHVKRHYYFSHTGINPTQVVPKGPDLDFSSPHQREMIG | soluble |
| MSEQQVQELEKKWYALQVEPGKENEAKENLLKVLELEGLKDLVDEVIVPAEEKVVIRAQGKEKYRLSLKGNARDISVLGKKGVTTFRIENGEVKVVESVEGDTCVNAPPISKPGQKITCKENKTEAKIVLDNKIFPGYILIKAHMNDKLLMAIEKTPHVFRPVMVGGKPVPLKEEEVQNILNQIKRGVKPSKVEFEKGDQVRVIEGPFMNFTGTVEEVHPEKRKLTVMISIFGRMTPVELDFDQVEKI | soluble |
| MKIIKRSGSEVTFDISKIMAAVSKANMEVVHSERLSEEQIETISNNVESICKEMNRSLSVEEIQDLVENQIMNLRAFAVARKYITYRYKRALVRKSNST | not soluble |
| MAQFLEKATSALSEAKESVTSTAESVTASLTDAEKTVNQTARSTLTDAETTVAASVETVKTEAAAAPDKASGVSTQAKDAVDKAFSRGIEGAKSLLQTFEAKSSDISSKLVGGVTNLVSGASSSTVANRDLPVSTDNQPLLASGEKTPWWKNCCGVLDLFKKDT | soluble |
| MAHHHHHHVDDDDKMVPYTVRFTTTARRDLHKLPPRILAAVVEFAFGDLSREPLRVGKPLRRELAGTFSARRGTYRLLYRIDDEHTTVVILRVDHRADIYRR | soluble |
| MGSDKIHHHHHHMQRENFGPAWLNENNAVMYFIVGTDIDVDIDDEIKTYEDIIQVDINENYHNITYKAIFWINEINKCRHGPKLLLKIDDDVHIDMIGLQFLIKRYSVMDDFMACRVISNGQVVRNNTSKWYLSKKDYKFPNLGTYCQGMVYFISGNLLPILHGNIEKSQFLWMDDWYVTRSLVGDYKISYYSLEQHSISPNTVREVYSSLMAIKTRKWRTIFAHFRPPQKFPMYRRRKIWANITEINNSCNILRKARINFVSAY | not soluble |

Source: the DeepSol protein solubility set
